Measured values reported in the supplement of paper PMC10724198.
± gives the standard deviation of the averaged measurements.

Experiments:
Saccharomyces cerevisiae [1] = test: protein stability index of tFT-peptide fusion (C-terminal peptide) (PSI (0-1 scale)); higher = more stable (slower turnover)
Procedure: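 MPS profiling in S. cerevisiae of the tFT-X12 degron library: putative degron peptides plus stable controls, 12 aa, fused to the C-terminus of a sfGFP-mCherry timer. Cells are FACS-sorted into 8 mCherry/sfGFP bins and deep-sequenced. PSI runs from 0 (unstable) to 1 (stable). Backgrounds are wild type, das1Δ and doa10Δ at 30 °C, and wild type, das1Δ, cdc34-1 and cdc53-1 at 37 °C; 2-3 technical replicates each.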

Saccharomyces cerevisiae [2] = test: as above; conditions: genetic background: wild type; temperature: 30 C
[3] = genetic background: cdc34-1, temperature: 37 C
[4] = genetic background: cdc53-1, temperature: 37 C
[5] = genetic background: das1 deletion, temperature: 30 C
[6] = genetic background: das1 deletion, temperature: 37 C
[7] = genetic background: doa10 deletion, temperature: 30 C
[8] = genetic background: wild type, temperature: 30 C
[9] = genetic background: wild type, temperature: 37 C
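Note: PSI is a weighted mean of sequencing reads over stability bins, variants kept only with over 10 reads, mCherry proximal and sfGFP distal, peptide attached via GGGS linker.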

Row | Sequence | protein stability index (Saccharomyces cerevisiae [1]; [3]) | protein stability index (Saccharomyces cerevisiae [1]; [4]) | protein stability index (Saccharomyces cerevisiae [1]; [5]) | protein stability index (Saccharomyces cerevisiae [1]; [6]) | protein stability index (Saccharomyces cerevisiae [1]; [7]) | protein stability index (Saccharomyces cerevisiae [1]; [8]) | protein stability index (Saccharomyces cerevisiae [1]; [9]) | protein stability index (Saccharomyces cerevisiae [2])
1 | MRLQLTFSILLF | 0.353 ± 0.036 | 0.43 ± 0.034 | 0.378 ± 0.021 | 0.393 ± 0.0059 | 0.4027 ± 0.0029 | 0.37 ± 0.021 | 0.3598 ± 0.0024 | 0.389 ± 0.019
2 | MSRALSVLVVVA | 0.176 ± 0.029 | 0.211 ± 0.011 | 0.213 ± 0.036 | 0.323 ± 0.0062 | 0.172 ± 0.0091 | 0.22 ± 0.019 | 0.287 ± 0.029 | 0.312 ± 0.012
3 | MTLYSFSSALLA | 0.413 ± 0.045 | 0.464 ± 0.013 | 0.316 ± 0.014 | 0.461 ± 0.002 | 0.27 ± 0.038 | 0.276 ± 0.016 | 0.423 ± 0.0074 | 0.3535 ± 0.0027
4 | NCVDRFKGQKRM | 0.655 ± 0.055 | 0.723 ± 0.029 | 0.64 ± 0.027 | 0.711 ± 0.0013 | 0.422 ± 0.021 | 0.491 ± 0.023 | 0.6341 ± 0.0052 | 0.505 ± 0.031
5 | NFFIQFHNLLFP | 0.754 ± 0.017 | 0.765 ± 0.037 | 0.664 ± 0.0089 | 0.769 ± 0.022 | 0.653 ± 0.017 | 0.6712 ± 0.0036 | 0.774 ± 0.027 | 0.718 ± 0.0086
6 | NGLVCVFILSWY | 0.202 ± 0.022 | 0.261 ± 0.1 | 0.234 ± 0.038 | 0.437 ± 0.011 | 0.21 ± 0.012 | 0.238 ± 0.033 | 0.375 ± 0.0047 | 0.375 ± 0.031
7 | NLFVFLSYLFNV | 0.603 ± 0.051 | 0.66 ± 0.0075 | 0.563 ± 0.013 | 0.7168 ± 0.0052 | 0.336 ± 0.035 | 0.34 ± 0.014 | 0.484 ± 0.013 | 0.422 ± 0.022
8 | NLVCLDPFLVFV | 0.582 ± 0.027 | 0.612 ± 0.011 | 0.478 ± 0.018 | 0.613 ± 0.0077 | 0.475 ± 0.026 | 0.472 ± 0.025 | 0.5835 ± 0.003 | 0.581 ± 0.22
9 | NMVSMVVVIFGV | 0.248 ± 0.014 | 0.37 ± 0.1 | 0.23 ± 0.039 | 0.437 ± 0.024 | 0.196 ± 0.021 | 0.24 ± 0.02 | 0.386 ± 0.016 | 0.275 ± 0.015
10 | NNQIQKKMYQTN | 0.585 ± 0.022 | 0.778 ± 0.018 | 0.667 ± 0.019 | 0.737 ± 0.012 | 0.179 ± 0.025 | 0.198 ± 0.05 | 0.473 ± 0.051 | 0.35 ± 0.022
11 | NWAIEIRSVKIV | 0.642 ± 0.066 | 0.701 ± 0.022 | 0.619 ± 0.04 | 0.7084 ± 0.007 | 0.148 ± 0.0038 | 0.183 ± 0.021 | 0.303 ± 0.015 | 0.261 ± 0.025
12 | NYCVFLSYLLFC | 0.362 ± 0.044 | 0.424 ± 0.025 | 0.318 ± 0.027 | 0.502 ± 0.0072 | 0.205 ± 0.012 | 0.215 ± 0.033 | 0.3961 ± 0.0034 | 0.301 ± 0.0096
13 | NYFRPWLIFHKC | 0.684 ± 0.021 | 0.749 ± 0.012 | 0.632 ± 0.05 | 0.742 ± 0.014 | 0.2644 ± 0.00051 | 0.309 ± 0.023 | 0.547 ± 0.0037 | 0.38 ± 0.059
14 | PALPQPMNPAPP | 0.656 ± 0.043 | 0.722 ± 0.0094 | 0.657 ± 0.014 | 0.727 ± 0.015 | 0.667 ± 0.022 | 0.66 ± 0.016 | 0.6734 ± 0.0059 | 0.725 ± 0.032
15 | PALVVALLASVL | 0.584 ± 0.018 | 0.646 ± 0.039 | 0.505 ± 0.022 | 0.60007 ± 0.00036 | 0.347 ± 0.015 | 0.386 ± 0.029 | 0.504 ± 0.0057 | 0.485 ± 0.011
16 | PCLPLTPMWTLF | 0.713 ± 0.034 | 0.789 ± 0.021 | 0.678 ± 0.0076 | 0.7793 ± 0.0028 | 0.3716 ± 0.0014 | 0.42 ± 0.022 | 0.611 ± 0.018 | 0.493 ± 0.0072
17 | PFFVLFSLAFLF | 0.375 ± 0.018 | 0.439 ± 0.033 | 0.302 ± 0.04 | 0.4886 ± 0.00064 | 0.2698 ± 0.0019 | 0.278 ± 0.017 | 0.422 ± 0.015 | 0.279 ± 0.07
18 | PLATSLIGLFVV | 0.663 ± 0.098 | 0.716 ± 0.013 | 0.522 ± 0.028 | 0.661 ± 0.021 | 0.273 ± 0.018 | 0.298 ± 0.032 | 0.4673 ± 0.0014 | 0.433 ± 0.039
19 | PLLLFFFPRLLF | 0.579 ± 0.046 | 0.62 ± 0.025 | 0.535 ± 0.027 | 0.6481 ± 0.0026 | 0.39 ± 0.0054 | 0.382 ± 0.019 | 0.559 ± 0.025 | 0.475 ± 0.024
20 | PLLPTPLTAPPP | 0.6705 ± 0.0022 | 0.73469 ± 0.00013 | 0.642 ± 0.031 | 0.7031 ± 0.006 | 0.659 ± 0.018 | 0.671 ± 0.023 | 0.6941 ± 0.0038 | 0.385 ± 0.0092
21 | PLLSATLTRRLA | 0.622 ± 0.041 | 0.665 ± 0.0088 | 0.684 ± 0.0075 | 0.692 ± 0.0072 | 0.162 ± 0.015 | 0.19 ± 0.03 | 0.386 ± 0.0044 | 0.475 ± 0.024
22 | PLTSPLLFPVFA | 0.272 ± 0.044 | 0.338 ± 0.029 | 0.269 ± 0.024 | 0.376 ± 0.0081 | 0.219 ± 0.011 | 0.267 ± 0.017 | 0.381 ± 0.033 | 0.376 ± 0.015
23 | PPPLPFPTPPPS | 0.689 ± 0.0093 | 0.764 ± 0.041 | 0.644 ± 0.044 | 0.702 ± 0.0074 | 0.634 ± 0.025 | 0.646 ± 0.032 | 0.6663 ± 0.0036 | 0.433 ± 0.038
24 | PPSLPPLISFSP | 0.7 ± 0.039 | 0.7808 ± 0.0052 | 0.656 ± 0.015 | 0.7661 ± 0.0014 | 0.669 ± 0.011 | 0.6624 ± 0.0039 | 0.7407 ± 0.0059 | 0.729 ± 0.03
25 | PPSRSPLPPLLH | 0.657 ± 0.04 | 0.729 ± 0.024 | 0.687 ± 0.041 | 0.707 ± 0.017 | 0.6917 ± 0.0047 | 0.686 ± 0.027 | 0.694 ± 0.031 | 0.723 ± 0.027
26 | PPTPYPRFIFSF | 0.688 ± 0.048 | 0.7541 ± 0.0012 | 0.647 ± 0.023 | 0.7672 ± 0.0047 | 0.331 ± 0.02 | 0.372 ± 0.028 | 0.601 ± 0.0037 | 0.459 ± 0.027
27 | PPVPRLLPVLAP | 0.525 ± 0.038 | 0.503 ± 0.015 | 0.379 ± 0.025 | 0.546 ± 0.02 | 0.348 ± 0.0045 | 0.385 ± 0.025 | 0.506 ± 0.0077 | 0.474 ± 0.0057
28 | PRIVLFLRLHSN | 0.555 ± 0.082 | 0.651 ± 0.042 | 0.512 ± 0.014 | 0.6891 ± 0.002 | 0.107 ± 0.029 | 0.118 ± 0.02 | 0.2184 ± 0.0019 | 0.21 ± 0.0069
29 | PRPETCHAVAVR | 0.568 ± 0.012 | 0.588 ± 0.037 | 0.377 ± 0.034 | 0.575 ± 0.015 | 0.363 ± 0.0093 | 0.4 ± 0.029 | 0.58 ± 0.011 | 0.4806 ± 0.0021
30 | PRPLLSIYLRHA | 0.597 ± 0.036 | 0.666 ± 0.014 | 0.599 ± 0.023 | 0.69 ± 0.019 | 0.29 ± 0.013 | 0.315 ± 0.017 | 0.553 ± 0.022 | 0.405 ± 0.018
